Reference: article PMC9067375, “Biochemical and crystallization analysis of the CENP-SX–DNA complex” (Acta Crystallographica. Section F, Structural Biology …, 2022)

Target: T1, CENP-S (MHF1), chicken, full-length (Gallus gallus)
T1 construct: CENP-S (MHF1), Gallus gallus, from cDNA; called full-length CENP-S; source: E. coli One Shot BL21(DE3) pLysS RARE2; prepared according to previous reports
T1 chain: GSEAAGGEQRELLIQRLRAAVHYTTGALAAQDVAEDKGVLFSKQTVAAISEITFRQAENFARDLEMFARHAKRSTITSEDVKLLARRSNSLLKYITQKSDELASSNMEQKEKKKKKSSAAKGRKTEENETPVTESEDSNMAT
Test: SDS-PAGE of the contents of crystals; crystals grown from the FANCM–CENP-SX pentamer (50 µM) with dsDNA in about 30% 1,4-dioxane, 293 K; crystals, solution and film analysed by 15% SDS–PAGE, Coomassie Brilliant Blue
Conditions: both partners purified

B1: CENP-X (MHF2), chicken (natural protein, Gallus gallus)
chain: GYEEREGGFRKETVERLLRLHFRDGRTRVNGDALLLMAELLKVFVREAAARAARQAQAEDLEKVDIEHVEKVLPQLLLDFV
notes: CENP-X (MHF2), Gallus gallus, from cDNA; source: E. coli One Shot BL21(DE3) pLysS RARE2; prepared according to previous reports
B1: binds.
